The values that follow come from patent US9951373B2, “Oplophorus-derived luciferases, novel coelenterazine substrates, and methods of use” (Promega Corporation, priority 2010, dated 2018).

Assay [1] concerns HEK293 cells. Briefly: Luminescence of luciferases in lysed HEK293 cells (codon optimization). Format: cell-based, human. The following applies: normalized. Here is the method:
Codon optimized versions of IV (“IV opt” (SEQ ID NO: 22) and “IV optB” (SEQ ID NO: 23)) and 9B8 (“9B8 opt” (SEQ ID NO: 24) and “9B8 optB” (SEQ ID NO: 25)) were generated and cloned into pF4Ag by methods known in the art. HEK293 cells were plated in 96-well plates at 15,000 cells/well and grown overnight at 37° C. The following day, the cells were transiently transfected in 6 well replicates using TRANSIT®-LT1 Transfection Reagent (Mirus Bio) with 100 ng of plasmid DNA encoding the codon optimized versions in pF4Ag and grown overnight at 37° C. HEK293 cells were also transfected with either pGL4.13 (Luc2/SV40) (Paguio et al., “pGL4 Vectors: A New Generation of Luciferase Reporter Vectors” Promega Notes, 89:7-10 (2005)) or pGL4.73 (hRL/SV40) (Id.) to normalize for differences in transfection efficiency. Ten ng/transfection or 10% of the total DNA transfected was used.
The OgLuc variants had higher luminescence compared to Luc2 and hRL.

For assay [2], the system named is cAMP response element (CRE). The assay can be described thus: Transcriptional reporter, forward transfection, CRE in HEK293 cells. The class given is cell-based, human. The following applies: 3 h; for baseline: 10 nM FSK. As for the experimental part:
HEK293 cells were plated at 15,000 cells/well in six 96-well tissue culture plates. Cells were grown in 100 μL of DMEM+10% FBS+1× non-essential amino acids (NEAA) and incubated overnight at 37° C. The cells were transiently transfected with either 10 ng or 100 ng plasmid DNA/well of pGL4.29 9B8 opt, pGL4.29 9B8 opt-P, or pGL4.29. Plasmid DNA was mixed with 850 μL of OPTI-MEMO (Invitrogen) and 32.4 μL of FUGENE® HD transfection reagent (Promega Corp.) and incubated at room temperature for 10 min. Eight μL of the transfection/reporter DNA mixture was added to the appropriate wells (2 constructs/plate). Cells were incubated for 4 hrs at 37° C. The medium was replaced with OPTI-MEM®+0.5% dialyzed FBS+1×NEAA+1× sodium pyruvate+1× Penn-Strep and incubated overnight at 37° C.
A lytic reagent containing 100 mM MES pH 6.1, 1 mM CDTA, 150 mM KCl, 35 mM thiourea, 2 mM DTT, 0.25% TERGITOLO NP-9 (v/v), 0.025% MAZUO DF 204, and 20 μM PBI-3939 was added to the cells containing pGL4.29 9B8 opt or pGL4.29 9B8 opt-P and allowed to incubated for 10 min at room temperature (100 μL lytic reagent added to 100 μL cells). ONE-GLO™ assay reagent (Promega Corp.) was added to cells containing pGL4.29 and used according to the manufacturer's protocol (100 μL reagent added to 100 μL cells). Luminescence was measured on a GLOMAX® Luminometer.

Assay [3] concerns CRE. Briefly: Transcriptional reporter, bulk transfection, CRE in NIH3T3 cells. Format: cell-based. The following applies: NIH3T3, 10 nM FSK, 4 h. As for the experimental part:
(§1) The transcriptional reporter containing HRE and 9B8 opt-P was used in the bulk transfection of HeLa cells
(§2) HEK293, NIH3T3, or HeLa cells were plated to a single well of a 6-well tissue culture plate the day before transfection at a density of 4.5×10^5 cells/well in 3 mL complete medium (DMEM+10% FBS+1×NEAA+1× sodium pyruvate) for HEK293 cells, 3×10^5 cells/well in 3 mL complete medium (DMEM+10% fetal calf serum (FCS)+1×NEAA+1× sodium pyruvate) for NIH3T3 cells, or 9.9×10^5 cells/well in 3 mL complete medium (DMEM+10% FBS+1×NEAA) for HeLa cells. Cells were grown overnight at 37° C.
(§3) 3,300 ng of reporter plasmid DNA in 155 μL OPTI-MEM® was mixed with 9.9 μL FUGENE® HD transfection reagent, vortexed briefly, and incubated at room temperature for 10 min. The CRE transcriptional reporters were used to transfect HEK293 and NIH3T3 cells. The HRE transcriptional reporters were used to transfect HeLa cells. The reporter mixture was added to cells and mixed by gentle rocking followed by incubation at 37° C. for 6 hrs (HEK293 and NIH3T3) or 3 hrs (HeLa). […]
(§4) FSK (CRE stimulator) or 17-AAG (HRE stimulator; 17-Allylamino-demethoxy geldanamycin) in OPTI-MEM® was added to the cells (10 nM or 10 μM final concentration for FSK; 1 nM or 1 μM final concentration for 17-AAG) and incubated at 37° C. for 4 hrs (FSK) or 6 hrs (17-AAG). […] Luminescence was measured on a GLOMAX® Luminometer.

Assay [4] has as its system CRE. The assay can be described thus: Transcriptional reporter, bulk transfection, CRE in HEK293 cells. Format: cell-based, human. To be noted: HEK293, 10 nM FSK, 4 h. As for the experimental part: as §1, §2, §3, §4
Assay [5] deals with antioxidant response element (ARE). Briefly: Transcriptional reporter, reverse transfection, ARE in HEK293 cells. The class given is cell-based, human. The following applies: 100 ng DNA, 24 h. As for the experimental part: HEK293 cells were trypsinized (T75 flask, 3 mL trypsin) and resuspended in […] (approximately 8.9×10^6 total cells) in medium containing DMEM+10% FBS+1×NEAA. Each transcriptional reporter was prepared for transfection by mixing 1.2 mL OPTI-MEM®, 12 μL transcription reporter DNA (100 ng) and 36 μL FUGENE® HD transfection reagent together and incubated at room temperature for 35 min. Following incubation, 624 μL of the transfection/reporter DNA mixture was added to 12 mL of cell suspension and mixed by inversion. After mixing, 100 μL of the cell/DNA mixture was added to wells of a 96-well plate (2 constructs/plate). The cells were incubated at 37° C. for 22 hrs. Tert-butylhydroquinone (a Nrf2 stabilizer; tBHQ; 1 μM (“baseline”) or 20 μM) or sulphoraphane, (an organosulfer antioxidant known to activate Nrf2; 1 μM (“baseline”) or 20 μM) in OPTI-MEM® was added to each well and incubated at 37° C. for 24 hrs. Cells were lysed with 100 μL lytic reagent as described above for the forward transfection. Luminescence was measured on a GLOMAX® Luminometer.

The nature of assay [6]: Brightness of purified OgLuc variant compared to firefly luciferase. Format: biochemical. Here is the method:
The 9B8 OgLuc variant was overexpressed and purified as described in Example 33. Reactions between diluted enzyme and substrate were performed using the following 2× buffer/assay reagent: 100 mM MES pH 6.0, 1 mM CDTA, 150 mM KCl, 35 mM thiourea, 2 mM DTT, 0.25% TERGITOL® NP-9 (v/v), 0.025% MAZU® DF 204, 10 mg/mL 2-hydroxy-β-cyclodextrin, and 20 μM PBI-3939. The final assay concentrations of purified enzyme and substrate were 0.5 pM and 10 μM, respectively. In parallel, reactions between diluted purified firefly luciferase (i.e., QUANTILUM® Recombinant Luciferase (Promega Corp.)) and luciferin were analyzed. The assay buffer/reagent for the firefly luciferase reaction was BRIGHT-GLO™, and the final assay concentrations were 0.5 pM enzyme and 500 μM luciferin. As the buffers/reagents for each reaction were known to provide “glow” kinetics, a 15 min time point was used to collect luminescence data.

In assay [7] the test system is cAMP-response element (CRE). The assay can be described thus: cAMP transcriptional reporter in HEK293 cells. The following applies: for fold-induction: FSK 5 hrs.
Assay [8] in a line: Thermal stability of OgLuc variants at 60° C. The class given is physicochemical. The following applies: luminescence at start of incubation (t=0), PBI-3939. Here is the method:
Aliquots were removed at different time-points and placed on dry ice to freeze the samples. […] Luminescence was measured on a GLOMAX® luminometer (Promega Corp.).
The thermal stability of the variants at 60° C. was examined as described above, except the assay buffer contained 100 mM MES pH 6.0 instead of HEPES.

B1: Luc2: a firefly luciferase (SEQ ID NOs: 28 and 29) (protein, listed as Photinus pyralis)
chain: MEDAKNIKKGPAPFYPLEDGTAGEQLHKAMKRYALVPGTIAFTDAHIEVDITYAEYFEMSVRLAEAMKRYGLNTNHRIVVCSENSLQFFMPVLGALFIGVAVAPANDIYNERELLNSMGISQPTVVFVSKKGLQKILNVQKKLPIIQKIIIMDSKTDYQGFQSMYTFVTSHLPPGFNEYDFVPESFDRDKTIALIMNSSGSTGLPKGVALPHRTACVRFSHARDPIFGNQIIPDTAILSVVPFHHGFGMFTTLGYLICGFRVVLMYRFEEELFLRSLQDYKIQSALLVPTLFSFFAKSTLIDKYDLSNLHEIASGGAPLSKEVGEAVAKRFHLPGIRQGYGLTETTSAILITPEGDDKPGAVGKVVPFFEAKVVDLDTGKTLGVNQRGELCVRGPMIMSGYVNNPEATNALIDKDGWLHSGDIAYWDEDEHFFIVDRLKSLIKYKGYQVAPAELESILLQHPNIFDAGVAGLPDDDAGELPAAVVVLEHGKTMTEKEIVDYVASQVTTAKKLRGGVVFVDEVPKGLTGKLDARKIREILIKAKKGGKIAV
Consider B1, for which, in assay [1], the “fold higher luminescence than hRL” value was “approximately 14 fold”.

B2: 9B8 opt: codon optimized version of the 9B8 variant (SEQ ID NO: 24) (protein)
chain: MVFTLEDFVGDWRQTAGYNLDQVLEQGGLSSLFQKLGVSVTPIQKIVLSGENGLKIDIHVIIPYEGLSGYQMGQIEKIFKVVYPVDDHHFKVILHYGTLVIDGVTPNMIDYFGRPYEGIAVFDGKKITVTGTLWNGNKIIDERLINPDGSLLFRVTINGVTGWRLCERILA
B2: the baseline is 192810 RLU in assay [2] (10 ng DNA); 3,078,418 RLU in assay [2] (100 ng DNA); 9,187,000 RLU in assay [3]; 39,700,000 RLU in assay [4]; 15,600,000 RLU in assay [5] (1 μM sulphoraphane); 15,100,000 RLU in assay [5] (1 μM tBHQ). The “RLU (10 µM FSK)” value in assay [2] (10 ng DNA) was 12,926,465 RLU; in assay [2] (100 ng DNA), 104,687,723 RLU. Besides, the figures for the Response in assay [2] (10 ng DNA) and in assay [2] (100 ng DNA) were 67 and 34, respectively. For the same molecule, in assay [5], the “RLU (20 μM sulphoraphane)” value was 89,600,000 RLU. Moreover, the “RLU (20 μM tBHQ)” value in assay [5] is on record as 120,000,000 RLU. For the same molecule, in assay [6], the “fold brighter than QUANTILUM Recombinant Luciferase with BRIGHT-GLO” value is “approximately 8 fold”. Further, in assay [6] (0.5 pM purified enzyme, 15 min, 10 μM PBI-3939 or BRIGHT-GLO with 500 μM luciferin), the luminescence was 19,200 RLU. Besides, the fold-induction in assay [7] (30 ng of DNA for transfection) worked out at 360; in assay [7] (100 ng of DNA for transfection), 109. Besides, the “induced luminescence higher than Luc2 transcriptional reporter” value in assay [7] (FSK induced) is reported as “approximately 1.5 logs”. For the same molecule, in assay [7] (FSK induced), the “induced luminescence higher than induced Renilla transcriptional reporter” value is “approximately 2.5 logs”. In assay [8], the RLU was 23,283,252,000 RLU.
